Reference: patent CN116041496A

Target: H7N9亚型禽流感病毒血凝素(HA)，野生型病毒上 (H7N9亚型禽流感病毒)
Assay: cell-based or functional assay

B1: H7N9-NeuAb (antibody, V domains shown)
VH: QVQLQQPRAELVMPGASVRMSCQASGYTFTDFWIHWVKQRPGQGLEWIGAIDTSDSYTTYNQNFRGKASLTVDESSSTAYMQLSSLTSEDSAVYYCARLDDGFYNYAMDYWGQGTSVTVSS
VL: NIMMTQSPSSLAVSAGEKVTLNCKSSQSVLNSSNQKNYLAWYQQRPGQSPKLLIYWASTREAGVPDRFTGSGSGTDFTLTISSVKAEDLAVYYCHQYLSSYTFGGGTKLKIK
Work on B1 yielded an HI 终点浓度 of 1.5 µg/mL, an HI效价 of 512 and a 中和 终点浓度 of 0.15 µg/mL. It also gave a 中和效价 of 5120.
